US20170081400A1 (CEPHALON, published 2017)

T1: human TL1A extracellular domain with N-terminal HIS and FLAG tag (human, UniProt O95150 72-251)
T1 construct: the whole entry is named
T1 sequence: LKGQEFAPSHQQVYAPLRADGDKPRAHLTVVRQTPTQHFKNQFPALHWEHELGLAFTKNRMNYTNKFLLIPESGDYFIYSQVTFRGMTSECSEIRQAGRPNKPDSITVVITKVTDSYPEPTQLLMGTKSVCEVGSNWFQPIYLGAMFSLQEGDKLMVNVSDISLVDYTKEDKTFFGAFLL

T2: human TL1A extracellular domain with N-terminal HIS and FLAG tag (human) (UniProt O95150)
T2 sequence: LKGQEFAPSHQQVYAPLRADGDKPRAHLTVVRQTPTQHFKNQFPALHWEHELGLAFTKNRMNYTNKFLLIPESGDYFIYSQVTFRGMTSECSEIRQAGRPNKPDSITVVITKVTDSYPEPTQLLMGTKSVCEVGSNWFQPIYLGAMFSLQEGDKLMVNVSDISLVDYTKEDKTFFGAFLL

T3: human TL1A extracellular domain with N-terminal HIS and FLAG tag (human, UniProt O95150 72-251)
T3 construct: whole entry named. ~70 kDa fraction purified by gel filtration
T3 sequence: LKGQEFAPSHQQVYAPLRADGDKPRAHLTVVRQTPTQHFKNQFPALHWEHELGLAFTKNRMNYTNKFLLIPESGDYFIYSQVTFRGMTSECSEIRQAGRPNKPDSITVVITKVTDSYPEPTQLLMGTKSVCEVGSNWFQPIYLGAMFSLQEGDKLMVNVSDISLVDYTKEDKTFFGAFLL


How the values were obtained:
[1] = target: T1, human TL1A extracellular domain with …; assay: SPR Run 5, Ab from supernatant captured on Protein A, TL1A 5 ug/mL, timepoint 44
Source text: (§1) 1.5. Antibody expression and antigen binding as determined by SPR. Using a CM5 sensor chip (GE Healthcare) Protein A (Pierce) was coupled to the chip surface using an amine coupling kit (GE Healthcare). Protein A was coupled on flow cell 1 and 2 (or alternatively 3 and 4) using a BIACORE® T200. […] The amount of supernatant or purified protein (as well as the concentration) injected during the capture stage varied between runs and is specified in the header of the Tables 3-11. At the end of injection of the supernatant or purified antibody the change in response units was measured. This value was reported as Capture Level in Tables 3-11. […] The response units were measured prior to the end of the dissociation phase. […] The sensorgrams were double referenced (flow cell 2 is subtracted from flow cell 1 and a buffer blank). As there were a large number of antibody variants to screen, these were screened across different runs (Tables 3-11). […] A summary of the conditions used in each run is below:
(§2) 2.1. […] In some experiment the antibodies were purified using Protein A chromatography (See 1.4) and purified antibodies were used in BIACORE® (GE Healthcare) experiments.

[2] = target: T1, human TL1A extracellular domain with …; assay: SPR Run 5, Ab from supernatant captured on Protein A, TL1A 5 ug/mL, timepoint 220
Source text: as §1, §2

[3] = target: T2, human TL1A extracellular domain with N-terminal HIS and FLAG tag (human); assay: cell-based or functional assay
[4] = target: T3, human TL1A extracellular domain with …; assay: SPR run 2; supernatant on Protein A; TL1A 10 ug/mL; timepoint 44
Outline: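 Biacore T200 SPR with antibody (supernatant or Protein A-purified) captured on Protein A amine-coupled to a CM5 chip; capture level recorded as response change at end of capture.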

[5] = target: T3, human TL1A extracellular domain with …; assay: SPR run 2; supernatant on Protein A; TL1A 10 ug/mL; timepoint 220
Outline: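 The capture level was the response change at the end of loading, which varied by run. Antigen response was read before dissociation ended, double-referenced against a reference flow cell and a buffer blank.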

| Binder | TL1A Binding Level (Early) [1] [RU] | TL1A Binding Level (Late) [2] [RU] | Antibody IC50, TL1A induced caspase potency assay in TF-1 cells [3] [µg/mL] | Fold improvement over 320-179, TL1A induced caspase potency assay in TF-1 cells [3] [fold] | TL1A Binding Level (Early) [4] [RU] | TL1A Binding Level (Late) [5] [RU] |
| --- | --- | --- | --- | --- | --- | --- |
| 320-373 (antibody, human IgG1, name in Kabat numbering, V domains shown, human IgG1, lambda) VH: QVQLVQSGAEVKKPGASVKVSCKASGYTFTSYDINWVRQAPGQGLEWMGWLNPNSGNTGYAQKFQGRVTMTADRSTSTAYMELSSLRSEDTAVYYCAREVPETAAFEYWGQGTLVTVSS VL: QSVLTQPPSVSGAPGQRVTISCTSSSSDIGAGLGVHWYQQLPGTAPKLLIEGYYNRPSGVPDRFSGSKSGTSASLTITGLLPEDEGDYYCQSYDGTLSQLFGGGTKLTVLG | -1 | -1 | – | – | – | – |
| 320-202 (antibody, human IgG1, name in Kabat numbering, V domains shown, human IgG1, lambda) VH: QVQLVQSGAEVKKPGASVKVSCKASGYTFTSYDINWVRQAPGQGLEWMGWLNPNSGNTGYAQKFQGRVTMTADRSTSTAYMELSSLRSEDTAVYYCAREVPETAAFEYWGQGTLVTVSS VL: QSVLTQPPSVSGAPGQRVTISCTQSSSDIGAGLGVHWYQQLPGTAPKLLIEGYYNRPSGVPDRFSGSKSGTSASLTITGLLPEDEGDYYCQSYDGTLSALFGGGTKLTVLG | – | – | 0.01 | 1 | 234 | 214 |
| 320-226 (antibody, human IgG1, name in Kabat numbering, V domains shown, human IgG1, lambda) VH: QVQLVQSGAEVKKPGASVKVSCKASGYTFTSYDINWVRQAPGQGLEWMGWLNPNSGNTGYAQKFQGRVTMTADRSTSTAYMELSSLRSEDTAVYYCAREVPETAAFEYWGQGTLVTVSS VL: QSVLTQPPSVSGAPGQRVTISCTSSSQDIGAGLGVHWYQQLPGTAPKLLIEGYYNRPSGVPDRFSGSKSGTSASLTITGLLPEDEGDYYCQSYDGTLSALFGGGTKLTVLG | – | – | 0.03 | 1 | 250 | 228 |
| 320-378 (antibody, human IgG1, name in Kabat numbering, V domains shown, human IgG1, lambda) VH: QVQLVQSGAEVKKPGASVKVSCKASGYTFTSYDINWVRQAPGQGLEWMGWLNPNSGNTGYAQKFQGRVTMTADRSTSTAYMELSSLRSEDTAVYYCAREVPETAAFEYWGQGTLVTVSS VL: QSVLTQPPSVSGAPGQRVTISCTSSSSDIGAGLGVHWYQQLPGTAPKLLIEGYYNRPSGVPDRFSGSKSGTSASLTITGLLPEDEGDYYCQSYDGTLSWLFGGGTKLTVLG | -1 | -1 | – | – | – | – |
| 320-245 (antibody, human IgG1, name in Kabat numbering, V domains shown, human IgG1, lambda) VH: QVQLVQSGAEVKKPGASVKVSCKASGYTFTSYDINWVRQAPGQGLEWMGWLNPNSGNTGYAQKFQGRVTMTADRSTSTAYMELSSLRSEDTAVYYCAREVPETAAFEYWGQGTLVTVSS VL: QSVLTQPPSVSGAPGQRVTISCTSSSSDHGAGLGVHWYQQLPGTAPKLLIEGYYNRPSGVPDRFSGSKSGTSASLTITGLLPEDEGDYYCQSYDGTLSALFGGGTKLTVLG | – | – | 0.54 | 0 | 59 | 26 |
| 320-229 (antibody, human IgG1, name in Kabat numbering, V domains shown, human IgG1, lambda) VH: QVQLVQSGAEVKKPGASVKVSCKASGYTFTSYDINWVRQAPGQGLEWMGWLNPNSGNTGYAQKFQGRVTMTADRSTSTAYMELSSLRSEDTAVYYCAREVPETAAFEYWGQGTLVTVSS VL: QSVLTQPPSVSGAPGQRVTISCTSSSKDIGAGLGVHWYQQLPGTAPKLLIEGYYNRPSGVPDRFSGSKSGTSASLTITGLLPEDEGDYYCQSYDGTLSALFGGGTKLTVLG | – | – | 0.04 | 2 | 268 | 251 |
| 320-375 (antibody, human IgG1, name in Kabat numbering, V domains shown, human IgG1, lambda) VH: QVQLVQSGAEVKKPGASVKVSCKASGYTFTSYDINWVRQAPGQGLEWMGWLNPNSGNTGYAQKFQGRVTMTADRSTSTAYMELSSLRSEDTAVYYCAREVPETAAFEYWGQGTLVTVSS VL: QSVLTQPPSVSGAPGQRVTISCTSSSSDIGAGLGVHWYQQLPGTAPKLLIEGYYNRPSGVPDRFSGSKSGTSASLTITGLLPEDEGDYYCQSYDGTLSHLFGGGTKLTVLG | -2 | -1 | – | – | – | – |
| 320-219 (antibody, human IgG1, name in Kabat numbering, V domains shown, human IgG1, lambda) VH: QVQLVQSGAEVKKPGASVKVSCKASGYTFTSYDINWVRQAPGQGLEWMGWLNPNSGNTGYAQKFQGRVTMTADRSTSTAYMELSSLRSEDTAVYYCAREVPETAAFEYWGQGTLVTVSS VL: QSVLTQPPSVSGAPGQRVTISCTSSDSDIGAGLGVHWYQQLPGTAPKLLIEGYYNRPSGVPDRFSGSKSGTSASLTITGLLPEDEGDYYCQSYDGTLSALFGGGTKLTVLG | – | – | 0.02 | 2 | 243 | 220 |
| 320-207 (antibody, human IgG1, name in Kabat numbering, V domains shown, human IgG1, lambda) VH: QVQLVQSGAEVKKPGASVKVSCKASGYTFTSYDINWVRQAPGQGLEWMGWLNPNSGNTGYAQKFQGRVTMTADRSTSTAYMELSSLRSEDTAVYYCAREVPETAAFEYWGQGTLVTVSS VL: QSVLTQPPSVSGAPGQRVTISCTWSSSDIGAGLGVHWYQQLPGTAPKLLIEGYYNRPSGVPDRFSGSKSGTSASLTITGLLPEDEGDYYCQSYDGTLSALFGGGTKLTVLG | – | – | 0.007 | 3 | 268 | 243 |
| 320-376 (antibody, human IgG1, name in Kabat numbering, V domains shown, human IgG1, lambda) VH: QVQLVQSGAEVKKPGASVKVSCKASGYTFTSYDINWVRQAPGQGLEWMGWLNPNSGNTGYAQKFQGRVTMTADRSTSTAYMELSSLRSEDTAVYYCAREVPETAAFEYWGQGTLVTVSS VL: QSVLTQPPSVSGAPGQRVTISCTSSSSDIGAGLGVHWYQQLPGTAPKLLIEGYYNRPSGVPDRFSGSKSGTSASLTITGLLPEDEGDYYCQSYDGTLSKLFGGGTKLTVLG | 3 | 1 | – | – | – | – |
| 320-209 (antibody, human IgG1, name in Kabat numbering, V domains shown, human IgG1, lambda) VH: QVQLVQSGAEVKKPGASVKVSCKASGYTFTSYDINWVRQAPGQGLEWMGWLNPNSGNTGYAQKFQGRVTMTADRSTSTAYMELSSLRSEDTAVYYCAREVPETAAFEYWGQGTLVTVSS VL: QSVLTQPPSVSGAPGQRVTISCTSASSDIGAGLGVHWYQQLPGTAPKLLIEGYYNRPSGVPDRFSGSKSGTSASLTITGLLPEDEGDYYCQSYDGTLSALFGGGTKLTVLG | – | – | 0.04 | 1 | 222 | 200 |
| 320-377 (antibody, human IgG1, name in Kabat numbering, V domains shown, human IgG1, lambda) VH: QVQLVQSGAEVKKPGASVKVSCKASGYTFTSYDINWVRQAPGQGLEWMGWLNPNSGNTGYAQKFQGRVTMTADRSTSTAYMELSSLRSEDTAVYYCAREVPETAAFEYWGQGTLVTVSS VL: QSVLTQPPSVSGAPGQRVTISCTSSSSDIGAGLGVHWYQQLPGTAPKLLIEGYYNRPSGVPDRFSGSKSGTSASLTITGLLPEDEGDYYCQSYDGTLSLLFGGGTKLTVLG | -1 | -1 | – | – | – | – |
| 320-241 (antibody, human IgG1, name in Kabat numbering, V domains shown, human IgG1, lambda) VH: QVQLVQSGAEVKKPGASVKVSCKASGYTFTSYDINWVRQAPGQGLEWMGWLNPNSGNTGYAQKFQGRVTMTADRSTSTAYMELSSLRSEDTAVYYCAREVPETAAFEYWGQGTLVTVSS VL: QSVLTQPPSVSGAPGQRVTISCTSSSSDAGAGLGVHWYQQLPGTAPKLLIEGYYNRPSGVPDRFSGSKSGTSASLTITGLLPEDEGDYYCQSYDGTLSALFGGGTKLTVLG | – | – | 0.02 | 1 | 179 | 122 |
